Data on two molecules can be found in PMC7527721, “Beyond Toxin Transport: Novel Role of ABC Transporter for Enzymatic Machinery of Cereulide NRPS Assembly Line” (mBio, 2020).

Assay [1] concerns the target C-terminal condensation domain C* of CesA (BACTH fusion) (Bacillus cereus F4810/72) (UniProt Q20CI9). Kind of assay: two-hybrid; BACTH in E. coli BTH101, β-galactosidase activity (Miller assay, ONPG, 28°C) of cells from LB-IPTG plates, normalized to the negative control (T18 and T25 alone).
The target of assay [2] is T1, CesD, transmembrane protein of the ABC transporter CesCD (BACTH fusion) (Bacillus cereus F4810/72, UniProt Q20CI6 1-268).
T1 construct: CesD, transmembrane protein of the ABC transporter CesCD, B. cereus F4810/72, NCBI ABK00530.1; also called T25-CesD; source: bacterial two-hybrid (BACTH) fusion, E. coli BTH101; not shown: T18 or T25 fragment of B. pertussis adenylate cyclase (several combinations tested), N-terminal or C-terminal, kept
T1 sequence: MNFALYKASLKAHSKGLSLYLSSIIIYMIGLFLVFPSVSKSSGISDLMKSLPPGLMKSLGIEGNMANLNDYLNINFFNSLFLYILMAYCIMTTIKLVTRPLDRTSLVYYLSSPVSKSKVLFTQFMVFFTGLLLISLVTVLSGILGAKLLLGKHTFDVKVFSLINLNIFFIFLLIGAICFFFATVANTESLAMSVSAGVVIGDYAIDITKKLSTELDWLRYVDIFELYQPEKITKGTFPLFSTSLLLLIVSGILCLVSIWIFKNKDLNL
The assay is described as above. The following applies: partners not purified.

“CesC K40M (BACTH fusion) (from UniProt Q20CI7 1-291) (natural protein)”: the decrease in β-galactosidase activity against wild-type CesC in assay [1] turned out to be 30%.

B1: CesC, ATPase of the ABC transporter CesCD (BACTH fusion) (natural protein)
chain: MIKIEGLTKEFGNGKGIFDVTFEVKQGEVFGFLGPNGAGKSTTIRHLMGFIKPSKGAATINGFDCWKEADQVKKRVGYLPGEIAFPEEMTAYDFIRLIAGMKGMSDLGRAEEFIEKFQLDMRVHIKKMSKGMKQKLAIVAAFLHDPDILILDEPSTGLDPLMQNILVDFILEEKKCGKTILISSHIFDEIKDTADTICIIKNGKIVESGDLKTLKSAQKRYLKAYFTQEVDVELLQRSNLQIEKVENLVATILIQQNINEIMRELMKYDLINVEIMEPEIKDIFIKHYENR
notes: also called T18-CesC; CesC-T18; source: bacterial two-hybrid (BACTH) fusion, E. coli BTH101; not shown: T18 or T25 fragment of B. pertussis adenylate cyclase (several combinations tested), N-terminal or C-terminal, kept
For the molecule B1, the “β-galactosidase activity, fold of the negative control” value in assay [2] was around 20 fold.
